The values that follow come from the nanobody polyreactivity screen of Harvey et al. (2022).

The nature of this data set: yeast display, Sf9 membrane polyspecificity reagent, FACS + sequencing; frameworks hold sequencing errors. A digest of the protocol: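 Using colony PCR, genes from sorted yeast display clones were amplified, then sequenced on MiSeq at 2 × 250 and filtered by CDR length. The clones had been stained with 10% biotinylated, detergent-solubilized Sf9 membrane reagent for 1 hour at 4 °C and sorted by FACS into low and high (top ~1%) gates on anti-HA and streptavidin fluorescence. Polyreactivity labels come from the gate of origin.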
With “QVQLVESGGCSVQAGGSLRLSCAAAGRIFSYYAMGWYRQAPGKERELVAAITSGGRTYYADSVKGRFTISRDNAKTTVYLQMNSLKPEDTAVYYCAVGVRNQYYYWGQGTQVTVSS”, the “polyreactivity (PSR sort gate)” value was “high polyreactivity”.
In the case of “QVQLVESGGGLVQAGGSLRFSCPASGLIFYYYVMGWYRQAPGKEREFVAAIRYRSSSTYYADSVKGRFTISRVNAKNTVYLQMNSVKPEDTAVYYCGADIYTYNLFYHGRWLDYNYWGQGTQVTVSS”, the “polyreactivity (PSR sort gate)” value was “high polyreactivity”.
On to “QVQLVETGGGLVQAGGSLRLSCAASGSIFFLYAMGWYRQAPGKERELVAAISRTGSTYADSVKGRLTISRDNAKNTVYLQMNSLKPEDTAVYYCDAEYRYYWYGTMNYWGQGTQVTVSS”, for which the “polyreactivity (PSR sort gate)” value is “low polyreactivity”.
The same measure for “QVQLVESGGGLVQAGGSLRLSCASSGRTFVNNAMGWSRQAPGKERELVAAISQSGSRTYYADSVKGRFTISRDNAKNTVYLQMNSLKPEDTAVYYCAARGARYSTSDYWGQGTQVTVSS”: “high polyreactivity”; for “QVQLVESGGRIVQAGGSLRLRCAASGSTFRWYAMGRYRQAPGKERQLVASITWSGGGTYYADSVKGRFTISRDNAKNTVYLQMNSLKPEDTAVYYCNRRTWRYETRGDDYWGQGTQVTVSS”: “high polyreactivity”; for “QDHLVESGGGLVQAGGSLRLSCSASGRTFGTYAMGWYRQAPGKERELVATISSGGSTYYADSVKGRFTISRDNAKNTGYLQMNSLKPEDTAVYYCADYRYFRPGDYWGQGTQVTVSS”: “low polyreactivity”.
As for “QVQLVESGGGLVQAGGSLRLSCAASGRIFDPNVMGWYRQAPGKERELVAAIRTSGGRTYYADSVKGRFTISRDNAKNTVYLQMHSLKPEDTAVYYCAKVNRAFPKYLIYGYWGQGTQVTVSS”, the “polyreactivity (PSR sort gate)” value is reported as “high polyreactivity”.
The same measure for “QVQLVESGGGLVQAGGSLRLSCAASGGTFRRYAMGWSRQAPGKERELVAAITRSGTNTYYADSVKGRFTISRDNAKNTVYLQMNSLNPEDTAVYYCAADGFGKYWGQGTQVTVSS”: “high polyreactivity”.
Consider “QVQLVESGGGLVQAGGSLRLSCAASGFTFNYYAMGWYRQAPGKERELVAAITSSGGSTYYADSVKGRFTISRDNAKNTVYLQMNSLKPEDTAVYYCNAAVYAHRYIYGFDYWGQGTQVTVSS”, for which the “polyreactivity (PSR sort gate)” value is listed as “high polyreactivity”.
As for “QVQLVESGGGLVQAGGSLRLSCAASGRIFSRNAMGWYRQAPGKERELVAAITRRGGSTYYADSVKGRFTISRDNAKNTVYLQMNSLKPEDTAVYYCATVTYSGSVDYDYWGQGTQVTVSS”, the “polyreactivity (PSR sort gate)” value is “high polyreactivity”.
As to “QVQLVESGGGLVQAGGSLRLSCAASGSIFIGYAMGWYRQAPGKERELVASIRNGGSTNYADSVKGRFTISRDNAKNTVYLQMNSLKPEDTAVYYCAGRYPVFLVSFGFDYWGQGTQVTVSS”, the “polyreactivity (PSR sort gate)” value is “low polyreactivity”.
Consider “QVQLVESGGGLVQAGGSLRLSCAASGFSFATYAMGWYRQAPGKERELVAAISSTGGRTYYAVSVKGRFTISRDNAKNNVYLQMNSLKPEDTAVYYCAADWRVTYDYWGQGTQVTVSS”, for which the “polyreactivity (PSR sort gate)” value was “high polyreactivity”.
“QVLLVESGGGLVQAGGSLRLSCAASGGTFGAYDMGWYRQAPGKERELVATITSGGRTNYADSVTGRFTISRDNAKNTVYLQMNSLKPVDTAVYYCNARYYGYDAPYHTYEYYYWGQGTQVTVSS”: the “polyreactivity (PSR sort gate)” value is on record as “low polyreactivity”.
Take “QVQLVESGGGLVQAGGSLRLSCAASGRIFDNYVMGWYRQAPGKERELVAAISSGGGTYYADSVKGRFTISRDNAKNTVYVQMNSLKPEDTAVYYCAKRRVYDRSFGRYDYWGQGTQVTVSS”: the “polyreactivity (PSR sort gate)” value is recorded as “low polyreactivity”.
The same measure for “HVQLVESGGGLVQAGGSLRLSCAASGFTSYLYTMGWYRQAPGKERELVAAISNSGGNTYYADSVKGRFTISRDNAKNTVYLQMNSLKPEDTAVYYCAARLFAAKYRYGYWGQGTQVTVSS”: “high polyreactivity”; for “QVQLVESGGGLVQAGGSLRLSSAASGRIFKRYTMGSYRQAPGKERELVAANTKRADRTNYADSVNGRFTISRDNAKNTVYLQMNSLKAVDTAVYYCNAEGQNDHPSNGYISYNYDYWGQGTQVTVSS”: “low polyreactivity”; for “QVQLVESGGGLVQAGGSLRLSCAASGRIFGYNGMGWYRQAPGKERELVAAITSGGRTYYADSVKGRFTISRDNAKNTVYLQMNSLKPEDTAVYYCAAYFYQRGYGYVGPYGYWGQGTQVTVSS”: “high polyreactivity”.
For the sequence “QVQLVESGGGLVQAGGSLRLSCATSGFTLLKNAMGWYRQAPGKERELVAAIRQRGTTTYYADSVKGRFTISRDNAKNTVYLQMNSLKPEDTAVYSCNAGRRTGRYGYWGQGTQVTVSS”, the “polyreactivity (PSR sort gate)” value is given as “high polyreactivity”.
For “QVQLQESAAGLVQAGGSLRMSCAASGNIFDADIMGWYRQEPGKERELVASITDGRRTNYADSVKGRYTISRDSEKNTVYLQMNSLKPEDTAVYYCAAIAYPVVPTYFDYDSDYFHWGQGTQVTVSS”, the “polyreactivity (PSR sort gate)” value was “high polyreactivity”.
Consider “QVQLVESGGGLVQAGGSLRLSCAASGSIFYQNVMGGYRQAPGKERELVAAISSSGDSTYYADSVKGRFTISRDNAKNTVYLQMNSLKPEDTAVYYCAAEPEYVSGPYDYWGQGTQVTVSS”, for which the “polyreactivity (PSR sort gate)” value was “low polyreactivity”.
As for “QVQLVESGGGLVQAGGSLRLSCAASGFIFVYNDMGWYRPAPGKERELVASISNGDNTNYADSVKGRFTISRDNAKNTVYLQMNSLKQEDTAVYYCAARGTIYVLGVPARPVPDGDYWGQGTQVTVSS”, the “polyreactivity (PSR sort gate)” value is “low polyreactivity”.
The value for “QVQLVESGGGLVQEGGSLRVSCAASGSTLIRNVMVRYRQAPGKERELVAVITYGVGSTYYADSVKGRFTISRDNAKNTVYLQMNSLKPEDTAVYYCNKDPLVFDYWGQGTQVTVSS” was “low polyreactivity”; that for “QVQLVESGGGLVQAGGSLRLSCAASGSILYWYAMGWYRQAPGKERELVAGIDWSGGSTYYADSVKGRFTISRDNAKNTVYLQMNSLKPEDTAVYYCNAVQNRGRGSHRGESTYYYWGQGTQVTVSS” was “low polyreactivity”.
Take “QVQLVESGGGLVQAGGSLRLSCPASGLIYYRYVMGWYRQAPGKERELVAAISGNGASTYYADSVKGRFTISRDNAKNTVFLQMNSLKPVDTAVYYCNADVYVSSKTHSSYPQWWGYDYWGQGTQVTVSS”: the “polyreactivity (PSR sort gate)” value was “low polyreactivity”.
For the sequence “QVQLVESGGGLVQAGGSLRLSCAASGSIFPWYAMGWYRQAPGKERELVAAITISGGSTHYADSVKGRFTISRDNAKNTVYLQMNSLKPEDTAVYYCATPRYPSYEYWGQGTQVTVSS”, the “polyreactivity (PSR sort gate)” value is “low polyreactivity”.
Turning to “QVQLEESGGGLVQAGGSLRLSCAASGITFVTYAMGWYRQAPGKERELVAAISRSGGRTYYADSVKGRFTISRDNAKNTVYLQMNSLKPEDTAVYYCAAERKNKYDYWGQGTQVTVSS”, the “polyreactivity (PSR sort gate)” value is given as “high polyreactivity”.
Consider “QVQLVESGGGLVQAGGSLRLSCAASGSTFRFNAMGWYRQAPGKERELVATISYSSDSTYYAYSVKVRFTISRDNAKNTVYLQMNSLKPEDTAVYYCAADSGYARFDYWGQGTQVTVSS”, for which the “polyreactivity (PSR sort gate)” value is “high polyreactivity”.
As for “QVQLVESGGGLVQAGGSLRLSCAASGIIFAWYAMGWYRQAPGKERELVAAISWSGGSTYYADSVKGRFTISRDNAKNTVYLQMNSLKPEDTAVYYCAADSDYGGYDYWGQGTQVTVSS”, the “polyreactivity (PSR sort gate)” value is listed as “high polyreactivity”.
The value for “QVQLVESGGGLVQAGGSLRLSCAASGSTFAYNDMGWYRQAPGKERELVADIRSGGNTNYADSVKGRFTISRDNAKNTVYLQMNSLKPEDTAVYYCASDGYRIDVYHPDYRYDYWGQGTQVTVSS” was “low polyreactivity”; that for “QVQLVESGGGLVQAGGSLRLSCAASGFIFPGNARGWYRQAPGKERELVAAISNSGSRTYYADSVKGRFTISRDNAKNTVYLQMNSLKPEDTAVYYCAALNYHKFAHKYDYWGQGTQVTVSS” was “low polyreactivity”.
The value for “QVQLVESGGGIVQAGGSLRLSCAASGTTIEYNAMGWYRQAPGKERELVASSTNYADSVKGRFTISRDNAKNTVYFQMNILKPEDTAVYYCAREQGVNRNHDYWGQGTQVTVSS” was “low polyreactivity”; that for “QVQLVESGGGLVQAGGSLRLSCAASGSILGYYAMGLYRQAPGKERELVAAISGRGGSTYYADSLKGRFTISRDNAKNTVYLQMNSLKPEDTAVYYCAKRSVWRGWGQGTQVTVSS” was “high polyreactivity”.
Consider “QVQLVESGGGLVQAGGSLRLSCAASGSTFRTYAMGWYRQAPGKERELVAAISGDTSTNYADSVKGRFTISRDNAKNTVYLQMNSLKPEDTAVYYCAAYWTTYATLWYDYWGQGTQVTVSS”, for which the “polyreactivity (PSR sort gate)” value was “low polyreactivity”.
The value for “QVQLVESGGGLVQAGGSLRLSCAASGLTFRYYAMGRNRPARGKEREVVAVITTSTGTTYYADSVKGRFTISRDNAKNTVYLQMNSLKPEDTPVYYCATDTGAYLYSMYDYWGQVTQVTVSS” was “low polyreactivity”; that for “QVQLVESGGGLVQAGGSLRLSCAASGSIFPEYAMGWYRQAPGKERELVAAITTSGGSTYYADSVKGRFTISRDNAKNTVYLQMNSLKPEDTAVYYCAVEYLVYLDYTYDYWGQGTQVTVSS” was “low polyreactivity”; that for “QDQLVESGGGLVQAGGSLRLSCAASGRTFVGYAMGWYRQAPGKERELVAAITSGGRTNYADSVKGRCTISRDNAKNTVYLQMTSLKPEDTAVYYCNARTRHRGQIALDYWGQGTQVTVSS” was “high polyreactivity”.
Turning to “QVQLVESGGGLVQAGGSLRLTCAASGRIFSYYDMGWYRKAPGKERELVARISYSGDSTYYADSVKGRFTISRDNAKNTVYLQMNSLKPEDTAVYYCAAEVDSGYSEYYWGQGTQVTVSS”, the “polyreactivity (PSR sort gate)” value is reported as “low polyreactivity”.
The value for “QVQLVESGGGLVQAGGSLRLSCAASGSNFANYAMGWYRQAPGKEREFVAGISGSGGSTFYADSVKGRFTISRDNAKNTVYLQMNSLKPEDTAVYYCAVVQRSKRTYPWYDYWGQGTQVTVSS” was “low polyreactivity”; that for “QVQLVESGGGLVQAGGSLRLSCAASGSIFRVNTLGWYRQAPGKERELVATISSGARTNYADSVKGRFTISRDNAKNTVDLQLNSLKPEDTAVYYCAADRSWGYWGRSRYDYWGQGTQVTVSS” was “high polyreactivity”.
Take “QVQLVESGGGLVQAGGSLRLSCAASGSTSPFNAMGWYRQAPGKERELVASITSSGSTNYADSVKGLFTISRDNAKYTVYFQMNSLKPEDTAVYYCATEGVVSETIYDYWGQGSQVTVSS”: the “polyreactivity (PSR sort gate)” value is recorded as “low polyreactivity”.
Regarding “QVQLVESGGGLVQAGGSLRLSCAASGFTFWYYAMGWYRQAPGKERELVARITSRGADTYADSVKGRFTISRDNAKNTVYLQKNSLKPEDTAVYYCNAEFGRARDDDYWGQGTQVTVSS”, the “polyreactivity (PSR sort gate)” value was “low polyreactivity”.
